Results from patent publication US10758613B2, “Combination therapies using anti-metabolites and agents that target tumor-associated stroma or tumor cells” (BIOMED VALLEY DISCOVERIES, INC., priority 2014, dated 2020).
Substitutions are numbered along the chain they refer to. Names and notes keep the numbering of the source. Where a SMILES comes first, the peptide text is derived from it. [ ]: non-standard residue; d: D form. The star is where a group is joined. Dolaproine = CO[C@@H]([C@@H]1CCCN1)[C@@H](C)C(=O)O; Dil = CC[C@H](C)[C@H](NC)[C@@H](CC(=O)O)OC; X1 = C[C@@H](N*)[C@@H](O)c1ccccc1; NMeV = CN[C@H](C(=O)O)C(C)C

Columns and labels:
[1] = test system: H460 human non-small cell lung carcinoma xenograft; assay: M830 alone and with gemcitabine, cisplatin or radiation in H460 human non-small cell lung carcinoma xenograft model; format: in vivo, nude mice; conditions: 58-day study, survival (TTE), logrank
Description: (§1) The statistical tests were not adjusted for multiple comparisons.
Treatment began on Day 1 in eight groups of nude mice (n=10) with established subcutaneous H460 tumors of 75-126 mm^3. […] The study endpoint was a tumor volume of 2000 mm^3 or the final day, Day 58, whichever came first. […] The median TTE for controls was 15.6 days, establishing a maximum possible TGD of 42.4 days (272%) for the 58-day study.

[2] = test system: OVCAR3 ovarian cancer model; assay: M825 and M825-MMAE in OVCAR3 ovarian cancer model; format: in vivo, mice; conditions: free MMAE at 0.2 mg/kg, equivalent to maximum MMAE in the 10 mg/kg ADC group
Procedure: Treatment initiated when tumor volume reached approximately 120 mm^3. M825 was given i.v. at 10 mg/kg and M825-MMAE was given i.v. at 1, 3, or 10 mg/kg, 2 times per week for 3.5 weeks. […] The 10 mg/kg ADC group was redosed on Day 56, 2 times per week.

[3] = Pharmacokinetics of TEM8 antibodies in mouse, multiple dose; format: in vivo
Description: (§2) Tables 8 and 9 show pharmacokinetic properties of TEM8 antibodies according to the present invention in mouse for single dose (Table 8) and multiple dose (Table 9) treatments.

[4] = Pharmacokinetics of TEM8 antibodies in mouse, single dose; format: in vivo
Description: as §2

3T3 fibroblasts = assay: Contractility of 3T3 fibroblasts in the presence of TGFb-1; format: cell-based
Procedure: 3T3 cells were cultured and contractility in the presence of TGFb-1 was measured in control or M825 exposed cells. […] Contractile forces are thought to contribute to increased cancer cell invasion.

hTEM8-AP = assay: Biocore affinity measurements of anti-TEM8 Fabs, hTEM8-AP; format: binding, human; conditions: Fab
Sequence of hTEM8-AP (Q9H6X2 33-321): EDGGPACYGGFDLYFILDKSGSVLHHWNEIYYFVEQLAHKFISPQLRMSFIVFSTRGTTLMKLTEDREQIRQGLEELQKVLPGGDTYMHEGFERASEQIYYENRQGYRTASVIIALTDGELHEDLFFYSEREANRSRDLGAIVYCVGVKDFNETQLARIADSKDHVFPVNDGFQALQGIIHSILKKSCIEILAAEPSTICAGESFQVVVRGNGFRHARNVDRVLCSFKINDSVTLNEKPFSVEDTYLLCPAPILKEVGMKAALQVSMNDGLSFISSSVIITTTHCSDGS

[5] = test system: H460 non-small cell lung carcinoma xenograft; assay: M830 alone and with bevacizumab or paclitaxel in the H460 non-small cell lung carcinoma xenograft model; format: in vivo, athymic nude mice; conditions: combination partner Paclitaxel
Procedure: Animals were monitored for regression responses.
as §1
Cultured H460 cells were harvested during exponential growth and resuspended in phosphate buffered saline at a concentration of 1×10^8 cells/mL. 1.0×10^7 tumor cells were injected subcutaneously into the flank of athymic nude mice. Animals were euthanized when tumors reached the pre-determined volume endpoint of 2000 mm^3 or on the final day (Day 88), whichever came first. […] Each treatment produced a significant survival difference versus controls (P<0.01). The median TTE for controls was 22.8 days, establishing a maximum possible TGD of 65.2 days (286%) for the 88-day study.

UACC melanoma cells = assay: TEM8 antibody efficacy in UACC melanoma model; format: in vivo, mice; conditions: 15 mg/kg, 3 times per week for 3-4 weeks; treatment initiated at 50 mm^3
Procedure: UACC melanoma cells were cultured and injected subcutaneously into mice. Treatment was initiated with a tumor volume of 50 mm^3, and treatment groups consisted of one of four TEM8 antibodies (M825, M830, M863, and M822), each dosed at 15 mg/kg, 3 times per week for 3-4 weeks.

FcγRIIIa (CD16a) = FcγRIIIa (CD16a) (Homo sapiens, UniProt P08637); assay: Binding of M830 Fc mutant to FcγRIIIa (ADCC); conditions: Fc mutant form compared with M830
Sequence of FcγRIIIa (CD16a) (P08637 17-254): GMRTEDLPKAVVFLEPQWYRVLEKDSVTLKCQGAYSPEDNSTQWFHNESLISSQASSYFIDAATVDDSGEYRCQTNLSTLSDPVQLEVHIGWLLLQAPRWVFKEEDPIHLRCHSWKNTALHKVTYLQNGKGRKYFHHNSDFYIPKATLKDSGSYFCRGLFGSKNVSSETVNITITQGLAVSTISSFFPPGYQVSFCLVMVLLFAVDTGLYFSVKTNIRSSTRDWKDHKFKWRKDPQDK
Description: Fc mutations which increase ADCC are known in the art. For example, substitutions in the IgG constant region such as S239D, A330L, and I332E are known to increase binding to the FCy receptor. (see, e.g., Lazar et al., Proc. Natl., Acad. Sci. U.S.A., 103:4005-4010, 2006). In the present example, the M830 Fc S239D:I332E double mutant was generated and confirmed by standard molecular biology techniques (830M: S239D/I332E).

**Q.** With `N.N.[Cl][Pt][Cl]` [Cisplatin, cisplatin] as the molecule, how does the “outcome compared to vehicle-treated controls” value [1] read?
**A.** statistically significant survival benefit

**Q.** Which “effect in OVCAR3 model” value [2] does the source give for `CC[C@H](C)[C@@H]([C@@H](CC(=O)N1CCC[C@H]1[C@H](OC)[C@@H](C)C(=O)N[C@H](C)[C@@H](O)c1ccccc1)OC)N(C)C(=O)[C@@H](NC(=O)[C@@H](NC)C(C)C)C(C)C` [MMAE, reference compound] (H-[NMeV]V[Dil][Dolaproine]-X1) here?
**A.** No effect

**Q.** For `Nc1ccn([C@@H]2O[C@H](CO)[C@@H](O)C2(F)F)c(=O)n1` [gemcitabine], which “outcome compared to vehicle-treated controls” value [1] is on record?
**A.** not statistically different from vehicle-treated controls

**Q.** For “M825: TEM8 monoclonal antibody (hIgG1); VH SEQ ID NO:1, VL SEQ ID NO:2 [Antibody M825]”, which AUCI ([3]; 5 mg/kg) is on record?
**A.** 1408.345 µg·h/mL

**Q.** And the AUCT ([3]; 5 mg/kg)?
**A.** 1408.201 µg·h/mL

**Q.** And the AUCI ([3]; 15 mg/kg)?
**A.** 21649.446 µg·h/mL

**Q.** What about the AUCT ([3]; 15 mg/kg) of the same molecule?
**A.** 21648.879 µg·h/mL

**Q.** And the AUCI ([4]; 5 mg/kg)?
**A.** 1310.519 µg·h/mL

**Q.** And the AUCT ([4]; 5 mg/kg)?
**A.** 1310.222 µg·h/mL

**Q.** And the AUCI ([4]; 15 mg/kg)?
**A.** 9239.202 µg·h/mL

**Q.** What about the AUCT ([4]; 15 mg/kg) of the same molecule?
**A.** 8991.767 µg·h/mL

**Q.** And the “contractility of activated 3T3 fibroblasts in vitro” value (3T3 fibroblasts)?
**A.** block the contractility

**Q.** What about the Kd (hTEM8-AP) of the same molecule?
**A.** 0.0591 nM

B1: M830: TEM8 monoclonal antibody (hIgG1); VH SEQ ID NO:5, VL SEQ ID NO:6 (antibody, V domains shown)
VH: EVQLVESGGGVVQPGRSVRLSCAASGFTFSTYTMHWVRQAPGKGLEWVAIISNDGSNKYYADPVRGRFTISRDNSKNTLYLQMNSLRAEDTAVYYCVRGSSWYRGNWFDPWGQGTLVTVSS
VL: DIQMTQSPSSLSASVGDRVTIACRASQTISRYLNWYQQKPGKAPKLLIYAASSLQSGVSSRFSGSGSGTEFTLTISSLQPEDFATYFCQQTYSPPITFGQGTRLEIKR
modifications: TEM830 mAb VH; TEM830 mAb VL
**Q.** With B1 as the molecule, how does the AUCI ([3]; 5 mg/kg) read?
**A.** 4316.79 µg·h/mL

**Q.** What about the AUCT ([3]; 5 mg/kg) of the same molecule?
**A.** 4315.918 µg·h/mL

**Q.** What about the AUCI ([3]; 15 mg/kg) of the same molecule?
**A.** 23053.875 µg·h/mL

**Q.** And the AUCT ([3]; 15 mg/kg)?
**A.** 23052.853 µg·h/mL

**Q.** And the AUCI ([4]; 5 mg/kg)?
**A.** 2242.485 µg·h/mL

**Q.** What about the AUCT ([4]; 5 mg/kg) of the same molecule?
**A.** 2242.286 µg·h/mL

**Q.** What about the AUCI ([4]; 15 mg/kg) of the same molecule?
**A.** 10692.742 µg·h/mL

**Q.** And the AUCT ([4]; 15 mg/kg)?
**A.** 10692.598 µg·h/mL

**Q.** What about the “regression (with % Tumor Reduction vs. Vehicle at Day 21)” value [5] of the same molecule?
**A.** −61%

**Q.** And the “tumor growth in the UACC melanoma model” value (UACC melanoma cells)?
**A.** effective at slowing tumor growth

**Q.** And the Kd (hTEM8-AP)?
**A.** 1.57 nM

**Q.** What about the “outcome compared to vehicle-treated controls” value [1] of the same molecule?
**A.** not statistically different from vehicle-treated controls

B2: M830 Fc S239D:I332E double mutant: M830 with Fc substitutions S239D and I332E made to increase ADCC (antibody)
heavy: B1 VH
VL: B1 VL
modifications: left off: a dimerising Fc or GST
notes: M830 with Fc substitutions S239D and I332E made to increase ADCC
**Q.** For B2, which “binding to FcγRIIIa (CD16a)” value (FcγRIIIa (CD16a)) is on record?
**A.** significantly enhanced binding

B3: M863: TEM8 monoclonal antibody (hIgG1); VH SEQ ID NO:7, VL SEQ ID NO:8 (antibody, V domains shown)
VH: EVQLVETGAEVKKPGASVKVSCKASGYTFTGYYMHWVRQAPGQGLEWMGWINPTSGSTNYAQKFQGRVTMTRDTSISTAYMELSGLRSDDTAVYYCVRDPGSPKWLAFDPWGQGTLVTVSS
VL: B1 VL with M4L, A22T, Q27R, T28A
modifications: TEM863 mAb VH; TEM863 mAb VL
**Q.** Which AUCI ([3]; 5 mg/kg) does the source give for B3 here?
**A.** 1425.735 µg·h/mL

**Q.** And the AUCT ([3]; 5 mg/kg)?
**A.** 1425.565 µg·h/mL

**Q.** What about the AUCI ([3]; 15 mg/kg) of the same molecule?
**A.** 7272.672 µg·h/mL

**Q.** What about the AUCT ([3]; 15 mg/kg) of the same molecule?
**A.** 7271.7 µg·h/mL

**Q.** And the AUCI ([4]; 5 mg/kg)?
**A.** 1330.847 µg·h/mL

**Q.** And the AUCT ([4]; 5 mg/kg)?
**A.** 1330.742 µg·h/mL

**Q.** And the AUCT ([4]; 15 mg/kg)?
**A.** 10721.535 µg·h/mL
